In patent publication US11976099B2, “Compositions and methods for treatment of bone associated diseases” (THE NATIONAL INSTITUTE FOR BIOTECHNOLOGY IN THE NEGEV LTD., priority 2016, dated 2024):
Changes are numbered by the printed parent chain. Numbers in names are those of the source.

B1: M-CSFM: 158 amino acid M-CSF with cysteine at position 31 replaced by serine (SEQ ID NO: 2) (protein)
chain: EEVSEYCSHMIGSGHLQSLQRLIDSQMETSSQITFEFVDQEQLKDPVCYLKKAFLLVQDIMEDTMRFRDNTPNAIAIVQLQELSLRLKSCFTKDYEEHDKACVRTFYETPLQLLEKVKNVFNETKNLLDKDWNIFSKNCNNSFAECSSQGHERQSEGS
B2: M-CSFWT: wild-type human M-CSF, disulfide-bond-linked homodimer which binds and activates c-FMS (protein)
chain: B1 chain with S31C
B3: M-CSFC31S,M27R: M-CSF double mutant containing both C31S and M27R; monomeric, monospecific c-FMS antagonist (protein)
chain: B1 chain with M27R

Columns and labels:
[1] = Small angle X-ray scattering (SAXS) analysis; type: physicochemical; conditions: 3, 5 and 7 mg/ml
Method: The scattering intensity was recorded in the interval 0.012<q<0.7 Å−1. The measurements were performed under vacuum at 25° C. All three M-CSF variants were measured at concentrations of 3, 5 and 7 mg/ml. The scattering of the buffer was also measured and subtracted from the scattering of the samples. The magnitude of the scattering vector is described by the following equation: […]
Values for the radius of gyration (Rg) were derived from the small angle part of the SAXS profile (Guinier region, qRg<1.0), in PRIMUS [43]. In this region, Guinier approximation is applicable:
Rg values were also derived using in-house scripts designed to perform an automatic search for the best fitting parameters using GNOM (Svergun, D. I. (1992). J. Appl. Crystallogr. 25, 495-503). CRYSOL ([…] and Koch, M. H. J. (1995) J. Appl. Crystallogr. 28, 768-773) was used to compute the theoretical SAXS spectra based on the M-CSFWT crystal structure (PDB ID code: 3UF2). These spectra served as a reference for reconstruction of the experimental SAXS data. GASBOR (Svergun, D. I., Petoukhov, M. V. and Koch, M. H. J. (2001) Biophys. J. 80, 2946-2953) was used to reconstruct the molecular envelope based on the best GNOM fit obtained from the in-house script. Ten models were calculated for each sample and averaged using DAMAVER (Volkov, V. V. and Svergun, D. I. (2003) J. Appl. Crystallogr. 36, 860-864).
Next, the size of the M-CSF variants was evaluated in solution. M-CSFWT, M-CSFC31S and M-CSFC31S,M27R at concentrations of 0.5 mg/ml were subjected to dynamic light scattering (DLS) analysis at an angle of 90°. The peaks for the most abundant species in each sample were compared (FIG. 16B), and an estimated hydrodynamic radius was calculated from each peak. […] To confirm that the oligomeric state of M-CSFC31S,M27R is not concentration dependent, all M-CSF variants were subjected to SAXS measurements at concentrations of 3, 5 and 7 mg/ml. Of note is that the Rg values remained within a similar range for M-CSFWT and M-CSFC31S. […]

human c-FMS = human c-FMS (Homo sapiens, UniProt P07333); experiment: c-FMS phosphorylation assay in CD14+ monocytes (western blot); type: cell-based; design: host or cells: human peripheral blood CD14+ monocytes; conditions: CD14+ cells; 0.5 nM human M-CSFWT + 100 nM variant
Method: Phosphorylation assay—The experiment was performed on two cell types, BMMs and human peripheral blood CD14^+ monocytes, as follows: (i) BMMs from wild-type C57BL6 mice were purified by flushing the bone marrow from the femur and tibia as previously described (Levaot, N., Simoncic, P. D., Dimitriou, I.D., Scoffer, A., La Rose, J., Ng, A. H. M. et al. (2011) J. Clin. Invest. 121, 3244-3257). The cells were treated with ACK red cells lysis buffer (ThermoFisher Scientific, USA) and grown in complete α-MEM growth medium (Sigma-Aldrich, USA) containing 10% fetal bovine serum (FBS) (selected to not contain LPS to prevent macrophage differentiation), penicillin, streptomycin and L-glutamine. Recombinant murine M-CSF was added at a concentration of 40 ng/ml (Peprotech, Israel) for three days at 37° C. to induce adhesion and proliferation of monocytes. Then, 7×10^5 cells were transferred into a 6-well plate with complete α-MEM and 20 ng/ml murine M-CSF and RANKL (R&D Systems, USA) for 48 h. (ii) CD 14^+ monocytes (Lonza, Switzerland) were grown in complete α-MEM medium for five days in the presence of human M-CSF (20 ng/mL). […] The images were quantified using ImageJ. The quantified intensity values of the phosphorylated c-FMS for each sample were divided by the total c-FMS intensity, and then by the β-actin expression intensity. […]

Sequence of human c-FMS (P07333 20-972): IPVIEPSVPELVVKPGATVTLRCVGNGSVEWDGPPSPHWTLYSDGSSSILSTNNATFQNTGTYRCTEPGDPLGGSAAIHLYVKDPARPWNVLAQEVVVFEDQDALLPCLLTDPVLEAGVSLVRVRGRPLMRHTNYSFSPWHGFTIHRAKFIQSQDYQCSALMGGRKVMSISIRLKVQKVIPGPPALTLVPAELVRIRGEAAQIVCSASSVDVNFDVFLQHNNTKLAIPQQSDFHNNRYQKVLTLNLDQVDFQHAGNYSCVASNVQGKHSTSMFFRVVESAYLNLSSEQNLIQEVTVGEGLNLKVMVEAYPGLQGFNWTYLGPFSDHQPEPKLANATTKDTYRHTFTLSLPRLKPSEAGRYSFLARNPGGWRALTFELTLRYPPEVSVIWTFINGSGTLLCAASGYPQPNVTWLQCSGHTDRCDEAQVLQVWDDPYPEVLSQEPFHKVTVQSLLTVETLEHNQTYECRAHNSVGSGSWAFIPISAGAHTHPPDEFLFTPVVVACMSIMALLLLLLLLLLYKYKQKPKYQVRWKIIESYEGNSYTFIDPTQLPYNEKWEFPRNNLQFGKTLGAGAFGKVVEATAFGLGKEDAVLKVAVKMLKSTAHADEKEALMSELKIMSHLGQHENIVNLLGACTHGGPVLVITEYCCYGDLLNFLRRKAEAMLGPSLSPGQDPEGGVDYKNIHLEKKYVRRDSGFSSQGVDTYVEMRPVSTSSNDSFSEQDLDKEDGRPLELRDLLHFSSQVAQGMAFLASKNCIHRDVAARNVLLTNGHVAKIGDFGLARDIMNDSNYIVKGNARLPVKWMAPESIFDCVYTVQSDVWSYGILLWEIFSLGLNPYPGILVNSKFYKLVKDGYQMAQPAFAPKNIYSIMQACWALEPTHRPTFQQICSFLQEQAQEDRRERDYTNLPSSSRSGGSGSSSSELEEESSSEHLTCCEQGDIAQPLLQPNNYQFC

| Molecule | oligomeric state in solution [1] | c-FMS phosphorylation level (human c-FMS) |
| --- | --- | --- |
| B1 | exist as dimers in solution | acted as an agonist, inducing phosphorylation |
| B2 | exist as dimers in solution |  |
| B3 | is a monomer | decreased phosphorylation of c-FMS |
